Test results taken from patent publication US20210300999A1.

Legend:
[1] = molecular target: SARS-CoV S2Pecto (SARS-CoV) (UniProt P59594); assay: ELISA on coated antigen
[2] = molecular target: recombinant receptor binding domain (RBD) of SARS-CoV-2 spike protein, residues 319-528, deglycosylated (SARS-CoV-2) (UniProt P0DTC2); assay: crystal structure RBD/COV2-2196/COV2-2130
[3] = molecular target: recombinant receptor binding domain (RBD) of SARS-CoV-2 spike protein, residues 319-528, deglycosylated (SARS-CoV-2) (UniProt P0DTC2); assay: crystal structure RBD/COV2-2196

Sequence of COV2-2196 Fab (recombinant, wt sequence) (VH): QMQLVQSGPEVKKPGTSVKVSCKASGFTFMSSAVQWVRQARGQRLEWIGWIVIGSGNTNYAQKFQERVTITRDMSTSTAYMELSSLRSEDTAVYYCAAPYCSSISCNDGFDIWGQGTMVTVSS
Sequence of COV2-2196 Fab (recombinant, wt sequence) (VL): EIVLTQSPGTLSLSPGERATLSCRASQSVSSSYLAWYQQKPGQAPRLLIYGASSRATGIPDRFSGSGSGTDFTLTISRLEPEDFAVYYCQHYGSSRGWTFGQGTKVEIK

| Substance | EC50 [1] | other results |
| --- | --- | --- |
| COV2-2094 (antibody) | 11.7 ng/mL |  |
| COV2-2196 Fab (recombinant, first two amino acids of the variable region mutated from QM to EV) |  | buried surface area of the interface [2]: 650 Å^2 |
| COV2-2196 Fab (recombinant, wt sequence) |  | buried surface area of the interface [3]: 650 Å^2 |
| rCR3022 (recombinant form of the cross-reactive SARS-CoV SRBD mAb CR3022) (antibody) | 5.2 ng/mL |  |
